Consider ten molecules from patent US12099068B2, “Biomarkers for graft-versus-host disease” (Incyte Corporation, priority 2018, dated 2024).

First the molecules themselves.
B1: ARG1 (protein, UniProt P05089 1-322, looked up)
Arginase-1: MSAKSRTIGIIGAPFSKGQPRGGVEEGPTVLRKAGLLEKLKEQECDVKDYGDLPFADIPNDSPFQIVKNPRSVGKASEQLAGKVAEVKKNGRISLVLGGDHSLAIGSISGHARVHPDLGVIWVDAHTDINTPLTTTSGNLHGQPVSFLLKELKGKIPDVPGFSWVTPCISAKDIVYIGLRDVDPGEHYILKTLGIKYFSMTEVDRLGIGKVMEETLSYLLGRKKRPIHLSFDVDGLDPSFTPATGTPVVGGLTYREGLYITEEIYKTGLLSGLDIMEVNPSLGKTPEEVTRTVNTAVAITLACFGLAREGNHKPIDYLNPPK
B2: CD79B (protein, UniProt P40259 29-229, looked up)
B-cell antigen receptor …: ARSEDRYRNPKGSACSRIWQSPRFIARKRGFTVKMHCYMNSASGNVSWLWKQEMDENPQQLKLEKGRMEESQNESLATLTIQGIRFEDNGIYFCQQKCNNTSEVYQGCGTELRVMGFSTLAQLKQRNTLKDGIIMIQTLLIILFIIVPIFLLLDKDDSKAGMEEDHTYEGLDIDQTATYEDIVTLRTGEVKWSVGEHPGQE
B3: Flt3L (protein, UniProt P49771 27-235, looked up)
Fms-related tyrosine kinase 3 …: TQDCSFQHSPISSDFAVKIRELSDYLLQDYPVTVASNLQDEELCGGLWRLVLAQRWMERLKTVAGSKMQGLLERVNTEIHFVTKCAFQPPPSCLRFVQTNISRLLQETSEQLVALKPWITRQNFSRCLELQCQPDSSTLPPPWSPRPLEATAPTAPQPPLLLLLLLPVGLLLLAAAWCLHWQRTRRRTPRPGEQVPPVPSPQDLLLVEH
B4: PLIN1 (protein, UniProt O60240 1-522, looked up)
Perilipin-1: MAVNKGLTLLDGDLPEQENVLQRVLQLPVVSGTCECFQKTYTSTKEAHPLVASVCNAYEKGVQSASSLAAWSMEPVVRRLSTQFTAANELACRGLDHLEEKIPALQYPPEKIASELKDTISTRLRSARNSISVPIASTSDKVLGAALAGCELAWGVARDTAEFAANTRAGRLASGGADLALGSIEKVVEYLLPPDKEESAPAPGHQQAQKSPKAKPSLLSRVGALTNTLSRYTVQTMARALEQGHTVAMWIPGVVPLSSLAQWGASVAMQAVSRRRSEVRVPWLHSLAAAQEEDHEDQTDTEGEDTEEEEELETEENKFSEVAALPGPRGLLGGVAHTLQKTLQTTISAVTWAPAAVLGMAGRVLHLTPAPAVSSTKGRAMSLSDALKGVTDNVVDTVVHYVPLPRLSLMEPESEFRDIDNPPAEVERREAERRASGAPSAGPEPAPRLAQPRRSLRSAQSPGAPPGPGLEDEVATPAAPRPGFPAVPREKPKRRVSDSFFRPSVMEPILGRTHYSQLRKKS
B5: BANK1 (protein, UniProt Q8NDB2 1-785, looked up)
B-cell scaffold protein with …: MLPAAPGKGLGSPDPAPCGPAPPGNTKDIIMIYEEDAEEWALYLTEVFLHVVKREAILLYRLENFSFRHLELLNLTSYKCKLLILSNSLLRDLTPKKCQFLEKILHSPKSVVTLLCGVKSSDQLYELLNISQSRWEISTEQEPEDYISVIQSIIFKDSEDYFEVNIPTDLRAKHSGEISERKEIEELSEASRNTIPLAVVLPTEIPCENPGEIFIILRDEVIGDTVEVEFTSSNKRIRTRPALWNKKVWCMKALEFPAGSVHVNVYCDGIVKATTKIKYYPTAKAKECLFRMADSGESLCQNSIEELDGVLTSIFKHEIPYYEFQSLQTEICSQNKYTHFKELPTLLHCAAKFGLKNLAIHLLQCSGATWASKMKNMEGSDPAHIAERHGHKELKKIFEDFSIQEIDINNEQENDYEEDIASFSTYIPSTQNPAFHHESRKTYGQSADGAEANEMEGEGKQNGSGMETKHSPLEVGSESSEDQYDDLYVFIPGADPENNSQEPLMSSRPPLPPPRPVANAFQLERPHFTLPGTMVEGQMERSQNWGHPGVRQETGDEPKGEKEKKEEEKEQEEEEDPYTFAEIDDSEYDMILANLSIKKKTGSRSFIINRPPAPTPRPTSIPPKEETTPYIAQVFQQKTARRQSDDDKFCGLPKKQDRARIESPAFSTLRGCLTDGQEELILLQEKVKNGKMSMDEALEKFKHWQMGKSGLEMIQQEKLRQLRDCIIGKRPEEENVYNKLTIVHHPGGKETAHNENKFYNVHFSNKLPARPQVEKEFGFCCKKDH
B6: TRANCE (protein, UniProt O14788 140-317, looked up)
Tumor necrosis factor ligand …: IRAEKAMVDGSWLDLAKRSKLEAQPFAHLTINATDIPSGSHKVSLSSWYHDRGWAKISNMTFSNGKLIVNQDGFYYLYANICFRHHETSGDLATEYLQLMVYVTKTSIKIPSSHTLMKGGSTKYWSGNSEFHFYSINVGGFFKLRSGEEISIEVSNPSLLDPDQDATYFGAFKVRDID
B7: AMIGO2 (protein, UniProt Q86SJ2 40-522, looked up)
Amphoterin-induced protein 2: VCPTACICATDIVSCTNKNLSKVPGNLFRLIKRLDLSYNRIGLLDSEWIPVSFAKLNTLILRHNNITSISTGSFSTTPNLKCLDLSSNKLKTVKNAVFQELKVLEVLLLYNNHISYLDPSAFGGLSQLQKLYLSGNFLTQFPMDLYVGRFKLAELMFLDVSYNRIPSMPMHHINLVPGKQLRGIYLHGNPFVCDCSLYSLLVFWYRRHFSSVMDFKNDYTCRLWSDSRHSRQVLLLQDSFMNCSDSIINGSFRALGFIHEAQVGERLMVHCDSKTGNANTDFIWVGPDNRLLEPDKEMENFYVFHNGSLVIESPRFEDAGVYSCIAMNKQRLLNETVDVTINVSNFTVSRSHAHEAFNTAFTTLAACVASIVLVLLYLYLTPCPCKCKTKRQKNMLHQSNAHSSILSPGPASDASADERKAGAGKRVVFLEPLKDTAAGQNGKVRLFPSEAVIAEGILKSTRGKSDSDSVNSVFSDTPFVAST
B8: NADK (protein, UniProt O95544 1-446, looked up)
NAD kinase: MEMEQEKMTMNKELSPDAAAYCCSACHGDETWSYNHPIRGRAKSRSLSASPALGSTKEFRRTRSLHGPCPVTTFGPKACVLQNPQTIMHIQDPASQRLTWNKSPKSVLVIKKMRDASLLQPFKELCTHLMEENMIVYVEKKVLEDPAIASDESFGAVKKKFCTFREDYDDISNQIDFIICLGGDGTLLYASSLFQGSVPPVMAFHLGSLGFLTPFSFENFQSQVTQVIEGNAAVVLRSRLKVRVVKELRGKKTAVHNGLGENGSQAAGLDMDVGKQAMQYQVLNEVVIDRGPSSYLSNVDVYLDGHLITTVQGDGVIVSTPTGSTAYAAAAGASMIHPNVPAIMITPICPHSLSFRPIVVPAGVELKIMLSPEARNTAWVSFDGRKRQEIRHGDSISITTSCYPLPSICVRDPVSDWFESLAQCLHWNVRKKQAHFEEEEEEEEEG
B9: FES (protein, UniProt P07332 1-822, looked up)
Tyrosine-protein kinase …: MGFSSELCSPQGHGVLQQMQEAELRLLEGMRKWMAQRVKSDREYAGLLHHMSLQDSGGQSRAISPDSPISQSWAEITSQTEGLSRLLRQHAEDLNSGPLSKLSLLIRERQQLRKTYSEQWQQLQQELTKTHSQDIEKLKSQYRALARDSAQAKRKYQEASKDKDRDKAKDKYVRSLWKLFAHHNRYVLGVRAAQLHHQHHHQLLLPGLLRSLQDLHEEMACILKEILQEYLEISSLVQDEVVAIHREMAAAAARIQPEAEYQGFLRQYGSAPDVPPCVTFDESLLEEGEPLEPGELQLNELTVESVQHTLTSVTDELAVATEMVFRRQEMVTQLQQELRNEEENTHPRERVQLLGKRQVLQEALQGLQVALCSQAKLQAQQELLQTKLEHLGPGEPPPVLLLQDDRHSTSSSEQEREGGRTPTLEILKSHISGIFRPKFSLPPPLQLIPEVQKPLHEQLWYHGAIPRAEVAELLVHSGDFLVRESQGKQEYVLSVLWDGLPRHFIIQSLDNLYRLEGEGFPSIPLLIDHLLSTQQPLTKKSGVVLHRAVPKDKWVLNHEDLVLGEQIGRGNFGEVFSGRLRADNTLVAVKSCRETLPPDLKAKFLQEARILKQYSHPNIVRLIGVCTQKQPIYIVMELVQGGDFLTFLRTEGARLRVKTLLQMVGDAAAGMEYLESKCCIHRDLAARNCLVTEKNVLKISDFGMSREEADGVYAASGGLRQVPVKWTAPEALNYGRYSSESDVWSFGILLWETFSLGASPYPNLSNQQTREFVEKGGRLPCPELCPDAVFRLMEQCWAYEPGQRPSFSTIYQELQSIRKRHR
B10: ZBTB17 (protein, UniProt Q13105 1-803, looked up)
Zinc finger and BTB …: MDFPQHSQHVLEQLNQQRQLGLLCDCTFVVDGVHFKAHKAVLAACSEYFKMLFVDQKDVVHLDISNAAGLGQVLEFMYTAKLSLSPENVDDVLAVATFLQMQDIITACHALKSLAEPATSPGGNAEALATEGGDKRAKEEKVATSTLSRLEQAGRSTPIGPSRDLKEERGGQAQSAASGAEQTEKADAPREPPPVELKPDPTSGMAAAEAEAALSESSEQEMEVEPARKGEEEQKEQEEQEEEGAGPAEVKEEGSQLENGEAPEENENEESAGTDSGQELGSEARGLRSGTYGDRTESKAYGSVIHKCEDCGKEFTHTGNFKRHIRIHTGEKPFSCRECSKAFSDPAACKAHEKTHSPLKPYGCEECGKSYRLISLLNLHKKRHSGEARYRCEDCGKLFTTSGNLKRHQLVHSGEKPYQCDYCGRSFSDPTSKMRHLETHDTDKEHKCPHCDKKFNQVGNLKAHLKIHIADGPLKCRECGKQFTTSGNLKRHLRIHSGEKPYVCIHCQRQFADPGALQRHVRIHTGEKPCQCVMCGKAFTQASSLIAHVRQHTGEKPYVCERCGKRFVQSSQLANHIRHHDNIRPHKCSVCSKAFVNVGDLSKHIIIHTGEKPYLCDKCGRGFNRVDNLRSHVKTVHQGKAGIKILEPEEGSEVSVVTVDDMVTLATEALAATAVTQLTVVPVGAAVTADETEVLKAEISKAVKQVQEEDPNTHILYACDSCGDKFLDANSLAQHVRIHTAQALVMFQTDADFYQQYGPGGTWPAGQVLQAGELVFRPRDGAEGQPALAETSPTAPECPPPAE

For this assay, the system named is plasma proteins. In words: Plasma proteins modulated between baseline and day 28 in responders (CR, VGPR, PR; n = 19), Example 6 (Table 13). The class given is in vivo, human. The following applies: plasma protein (OLINK NPX); responders (CR, VGPR, PR; n = 19); itacitinib 200 mg or 300 mg QD with corticosteroids; day 28 vs baseline. In outline: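 Plasma at baseline/screening and day 28 profiled for >1000 proteins by OLINK proximity extension assay, reported as NPX (log2). Steroid-naive and steroid-refractory patients pooled. Paired and unpaired t tests, ANOVA and Pearson correlation applied; significance at P<0.05.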
Turning to B1, the “Fold Change, Decreased Expression from Baseline to Day 28” value (“Fold Change, Decreased Expression” for short) is given as −1.3036.
With B2, the “Fold Change, Decreased Expression” value is recorded as −1.2372.
On to B3, for which the “Fold Change, Increased Expression from Baseline to Day 28” value is 2.3423.
In the case of B4, the “Fold Change, Increased Expression from Baseline to Day 28” value is 2.4338.
B5: the “Fold Change, Decreased Expression” value is given as −2.0084.
For the molecule B6, the “Fold Change, Decreased Expression” value is listed as −1.4034.
Turning to B7, the “Fold Change, Decreased Expression” value was −1.1962.
Turning to B8, the “Fold Change, Decreased Expression” value is given as −1.3493.
For the molecule B9, the “Fold Change, Decreased Expression” value was −1.4934.
For the molecule B10, the “Fold Change, Decreased Expression” value was −1.2333.
